Reference: PMC11117311

Legend:
[1] = immunofluorescence, RBE cells; details: glycan lost; control: FLAG-K18WT
[2] = HA-ubiquitin, MG-132, anti-FLAG IP, anti-HA blot; details: glycan lost; control: FLAG-K18-WT
[3] = CHX chase 8 h, FLAG-K18 remaining by blot; details: glycan lost; control: FLAG-K18-WT
[4] = [U-13C6] glucose tracing, LC-MS/MS, HuCCT1; details: glycan lost; control: shK18 + WT
[5] = CHX chase up to 8 h, K18 remaining by blot; details: glycan lost; control: DMSO

Protein | other: filament organisation [1] | other: ubiquitination [2] | degradation_or_half_life [3] | other: TCA cycle metabolite levels [4] | degradation_or_half_life [5]
Keratin 18 (K18): S30A (protein) parent chain: MSFTTRSTFSTNYRSLGSVQAPSYGARPVSSAASVYAGAGGSGSRISVSRSTSFRGGMGSGGLATGIAGGLAGMGGIQNEKETMQSLNDRLASYLDRVRSLETENRRLESKIREHLEKKGPQVRDWSHYFKIIEDLRAQIFANTVDNARIVLQIDNARLAADDFRVKYETELAMRQSVENDIHGLRKVIDDTNITRLQLETEIEALKEELLFMKKNHEEEVKGLQAQIASSGLTVEVDAPKSQDLAKIMADIRAQYDELARKNREELDKYWSQQIEESTTVVTTQSAEVGAAETTLTELRRTVQSLEIDLDSMRNLKASLENSLREVEARYALQMEQLNGILLHLESELAQTRAEGQRQAQEYEALLNIKVKLEAEIATYRRLLEDGEDFNLGDALDSSNSMQTIQKTTTRRIVDGKVVSETNDTKVLRH | changes | increases | decreases | changes | –
Keratin 18 (K18): 5S (Ac45SGlcNAc) (protein) parent chain: MSFTTRSTFSTNYRSLGSVQAPSYGARPVSSAASVYAGAGGSGSRISVSRSTSFRGGMGSGGLATGIAGGLAGMGGIQNEKETMQSLNDRLASYLDRVRSLETENRRLESKIREHLEKKGPQVRDWSHYFKIIEDLRAQIFANTVDNARIVLQIDNARLAADDFRVKYETELAMRQSVENDIHGLRKVIDDTNITRLQLETEIEALKEELLFMKKNHEEEVKGLQAQIASSGLTVEVDAPKSQDLAKIMADIRAQYDELARKNREELDKYWSQQIEESTTVVTTQSAEVGAAETTLTELRRTVQSLEIDLDSMRNLKASLENSLREVEARYALQMEQLNGILLHLESELAQTRAEGQRQAQEYEALLNIKVKLEAEIATYRRLLEDGEDFNLGDALDSSNSMQTIQKTTTRRIVDGKVVSETNDTKVLRH | – | – | – | – | decreases
